Laboratory results reported in US20110065592A1.

Target: RNA Pol II (UniProt P24928)
Assay: cell-based or functional assay

Substance: anti RNA Pol II antibody (Santa Cruz sc-899)
- cT of real-time PCR for GAPDH gDNA released from wells coated with the RNA Pol II antibody, compared with wells coated with the unspecific anti IgG antibody: < 5 cT
- delta between the cT's obtained using the specific RNA Pol II antibody and the unspecific anti-mouse IgG antibody (all three washing procedures): > 0 cT
- delta between the cT's obtained using the specific RNA Pol II antibody and the unspecific anti-mouse IgG antibody (washing with LS buffer and TE): 3.3 cT
